1 molecule from article PMC7619307, “The Golgi vesicle tether p115 can bind directly to the ER exit site organiser Sec16A” (Journal of cell science, 2026) can be followed below.

The target of the assay is T1, FLAG-tagged p115 head domain (1–655) (human, UniProt O60763 1-655).
T1 sequence (looked up): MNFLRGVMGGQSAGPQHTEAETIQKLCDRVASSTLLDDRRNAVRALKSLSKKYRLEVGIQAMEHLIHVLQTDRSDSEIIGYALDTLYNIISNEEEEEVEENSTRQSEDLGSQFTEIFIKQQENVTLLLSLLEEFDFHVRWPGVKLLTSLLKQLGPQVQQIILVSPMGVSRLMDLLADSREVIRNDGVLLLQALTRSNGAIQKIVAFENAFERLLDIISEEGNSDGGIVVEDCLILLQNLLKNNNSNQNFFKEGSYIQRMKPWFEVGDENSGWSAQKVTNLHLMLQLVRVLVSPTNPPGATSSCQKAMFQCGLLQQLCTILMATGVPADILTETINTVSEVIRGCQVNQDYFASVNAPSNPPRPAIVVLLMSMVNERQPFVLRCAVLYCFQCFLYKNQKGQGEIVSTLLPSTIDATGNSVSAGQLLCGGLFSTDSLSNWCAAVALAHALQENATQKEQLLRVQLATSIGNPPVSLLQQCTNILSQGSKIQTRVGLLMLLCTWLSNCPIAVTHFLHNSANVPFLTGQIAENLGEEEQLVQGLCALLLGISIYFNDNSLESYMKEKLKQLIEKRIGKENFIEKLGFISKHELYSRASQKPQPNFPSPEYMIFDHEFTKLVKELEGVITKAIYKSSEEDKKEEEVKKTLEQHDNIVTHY
The assay can be described thus: pull-down; direct binding assay: FLAG-tagged protein eluted from anti-FLAG beads (1 M NaCl wash, 3×FLAG peptide) was incubated for 1 h at 4°C with GFP-tagged protein held on GFP-Trap beads after harsh washes (1% SDS; 1 M NaCl, 1% Triton X-100); washes with 300 mM NaCl; immunoblot. The following applies: both partners purified. On the technique in general: In western blotting, separated proteins are transferred to a membrane and probed.

B1: Sec16A (650–776)–GFP (domain or fragment, human, UniProt O15027 650-776, looked up)
chain: ALPDASPGNLEQPPDNMETLCAPQVCPLPLNSTTEAVHMLPHAGAPPLDTVYPAPEKRPSARTQGPVKCESPATTLWAQSELPDFGGNVLLAPAAPALYVCAKPQPPVVQPPEEAMSGQQSRNPSSA
notes: source: HEK293T, transfected, in lysate (co-precipitation); not shown: GFP, C-terminal, kept
As for B1, the binding result was “binds”.
